Results as given in patent US20070128190A1.

How the values were obtained:
[1] = biological target: human α2β1 integrin on human cells (platelets, leukocytes, HT1080) (human) (UniProt P17301); experiment: cell-based or functional assay
[2] = biological target: human platelet α2β1 integrin (immobilized on microtiter plates) (human) (UniProt P17301); experiment: competition with Eu-TMC-2206 on platelet α2β1-coated plates
TMC-2206 [3] = experiment: ELISA, GST fusion protein on immobilized TMC-2206 (Kd apparent)
TMC-2206 [4] = experiment: fusion protein competing Eu-TMC-2206 off α2β1-coated plate
TMC-2206 [5] = experiment: ELISA, GST fusion protein on immobilized TMC-2206
[6] = biological target: Humanized TMC-2206 (hIgG4/κ VH12.0/VL10.0Q); experiment: fusion protein competing Eu-humanized TMC-2206 off α2β1-coated plates
TMC-2206 [7] = experiment: ELISA, GST fusion protein on immobilized TMC-2206, Kd estimated from EC50

Substance: 10G11 (antibody)
- EC50, adhesion of resting platelets to Type I collagen [1]: > 200 nM

Substance: AK7 (antibody)
- Ki [2]: 0.07 nM

Substance: GST-hα2 I domain E44V (from UniProt P17301 153-368)
- Kd (TMC-2206 [3]): 0.23 nM
- Ki (TMC-2206 [4]): 0.35 nM

Substance: GST-hα2 I domain I21V (from UniProt P17301 153-368)
- Kd (TMC-2206 [3]): 0.28 nM
- Ki (TMC-2206 [4]): 0.24 nM

Substance: GST-hα2 I domain N67E (from UniProt P17301 153-368)
- Kd (TMC-2206 [3]): 0.28 nM
- Ki (TMC-2206 [4]): 0.4 nM

Substance: GST-hα2 I domain Q48T (from UniProt P17301 153-368)
- Kd (TMC-2206 [3]): 0.19 nM
- Ki (TMC-2206 [4]): 0.73 nM

Substance: GST-hα2 I domain Q105E (from UniProt P17301 153-368)
- Kd (TMC-2206 [3]): 0.15 nM
- Ki (TMC-2206 [4]): 0.38 nM

Substance: GST-hα2 I domain T76D (from UniProt P17301 153-368)
- Kd (TMC-2206 [3]): 0.17 nM
- Ki (TMC-2206 [4]): 0.15 nM

Substance: GST-hα2 I domain V70I (from UniProt P17301 153-368)
- Kd (TMC-2206 [3]): 0.44 nM
- Ki (TMC-2206 [4]): 0.86 nM

Substance: GST-hα2 I domain V71I (from UniProt P17301 153-368)
- Kd (TMC-2206 [3]): 0.19 nM
- Ki (TMC-2206 [4]): 0.83 nM

Substance: GST-hα2 I domain Y77F (from UniProt P17301 153-368)
- Kd (TMC-2206 [3]): 0.22 nM
- Ki (TMC-2206 [4]): 0.39 nM

Substance: GST-hα2 I domain Y93H (from UniProt P17301 153-368)
- Kd (TMC-2206 [3]): 6.1 nM
- fold decrease in apparent affinity (TMC-2206 [5]): 23 fold

Substance: GST-mα2 I domain H93Y (from UniProt Q62469 150-377)
- Ki (TMC-2206 [4]): 20.2 nM
- fold decrease in potency relative to the wt human α2 I domain (TMC-2206 [4]): 200 fold

Substance: GST-rat α2 I domain fusion protein (from UniProt Q62469 150-377)
- Ki [6]: 5.23 nM
- fold decrease in Ki compared to the human α2 I domain [6]: 9 fold
- fold shift in Kd compared to human α2 (TMC-2206 [5]): 3 fold
- Kd (TMC-2206 [7]): 0.54 nM
- Ki (TMC-2206 [4]): 3.8 nM
